Results reported in US20210009686A1 (BEIJING XUANYI PHARMASCIENCES, published 2021).
Where a chain is given by its changes, count along the chain named.

B1: hybridoma clone 10-J10-B (antibody, V domains shown)
VH: QVQLQQSGAELARPGASVKLSCKASGYTFTSWSISWVKQRTGQGLEWIGEIYPRSDNIHYNEKFKGKATLTADKSSSTVYMQLSSLTSEDSAVYFCARAYYGNSFAYWGQGTLVTVSA
VL: DIVMTQSPSSLTVTAGEKVTMTCKSSQILLNSGNQKNYLTWYQQKPGQPPKLLIYWASTRESGVPDRFTGSGSGTDFSLTISSVQAEDLAIYYCQNDYYYPFTFGSGTKLEIK
B2: hybridoma clone 9-A13-B (antibody, V domains shown)
VH: EVQLVESGGGLVKPGGSRKLSCAASGFSFSDYGMHWVRQAPEKGLEWVAHISSGSSTIYYADTMKGRFTISRDNAKNTLFLQMTSLRSEDTAMYYCARFARGNTMDYWGQGTSVTVSS
VL: B1 VL with T22S, I28S, S78T, A90T, I91V, D97G, Y99S, F102L, S106A, I112L
B3: hybridoma clone 4-N1-A (antibody, V domains shown)
VH: B2 VH with E6N, S28T, H50Y, A100V, T104S
VL: B1 VL with T22S, I28S, S78T, A90T, I91V, D97A, Y99S, F102L, S106A, I112L
B4: hybridoma clone 5-J22-A (antibody, V domains shown)
VH: B2 VH with S28T, S56N, T57I, Y59H, M64L
VL: DIVMTQSPSSLTVTAGEKVTMSCKSSQSLLNSGNQKNYLTWYQQKPGQPPKLLIYWASTRESGVPDRFTGSGSGTDFTLTISSVQAEDLTVYYCQNAYSFPLTFGAGTKLELK
B5: hybridoma clone 6-C5-A (antibody, V domains shown)
VH: B2 VH with S28T, H50Y, A97T
VL: B4 VL with K36R, Q44R, V91F, A97G, F100Y
B6: hybridoma clone 7-A21-A (antibody, V domains shown)
VH: B2 VH with S28T, H35Y, V48L, H50Y, S56N, M64V, F99I, T104A
VL: B4 VL with T90A, A97D, S99I, F100Y, E111G
B7: hybridoma clone 7-B15-A (antibody, V domains shown)
VH: B2 VH with S28T, V48I, A100V, T104A, M105L
VL: B4 VL with S22N, A97G, F100Y
B8: hybridoma clone 7-E20-A (antibody, V domains shown)
VH: B2 VH with S28T, H50Y, Y59H, A61V, M105L
VL: B4 VL with L30F, S32T, A97G, F100Y
B9: hybridoma clone 9-B11-A (antibody, V domains shown)
VH: B2 VH with S28T, H50Y, T57P, M64V, T104A
VL: B4 VL with E61D, T90A, A97N, S99Y, F100Y, K109N
B10: hybridoma clone 10-L9-A (antibody, V domains shown)
VH: B2 VH with S28T, V48I, H50Y, S52N, M64V, Y94F, T104V, M105L
VL: B4 VL with K24R, K36R, Q48H, S83G, T90A, A97G, F100Y, L112V
B11: hybridoma 1-B13-A (antibody, V domains shown)
VH: B1 VH with S31V, I34M, E46Q, R54K, D56G, I58T, S117P
VL: B1 VL with S10P, V19A, T22S, I28S, K36R, I91V, Y98F, Y99I

Columns and labels:
[1] = target: T1, claudin 18.1 (CLDN18.1) (human, UniProt P56856 1-261); test: in-cell ELISA, hybridoma supernatant on HEK293-CLDN18.1 cells
T1 construct: also called HEK293-CLDN18.1
T1 sequence (P56856 whole entry): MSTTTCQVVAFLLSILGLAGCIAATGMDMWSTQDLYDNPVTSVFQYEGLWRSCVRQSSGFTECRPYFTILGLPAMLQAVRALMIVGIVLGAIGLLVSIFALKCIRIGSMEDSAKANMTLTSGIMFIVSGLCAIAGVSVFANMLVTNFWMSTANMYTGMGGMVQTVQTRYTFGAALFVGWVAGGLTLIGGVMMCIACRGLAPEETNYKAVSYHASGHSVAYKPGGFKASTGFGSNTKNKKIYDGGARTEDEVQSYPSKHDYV
Experimental: (§1) In-cell ELISAs were performed as follows: 5×10³ HEK293-CLDN18.2 cells were seeded per well in a poly-L-lysine-coated 96-well plate. The plates were then incubated at 37° C. with 5% CO₂ for 2 days. Following incubation, culture media was removed from each well, and the HEK293-CLDN18.2 cells were blocked with 200 μl blocking buffer (3% BSA/PBS (pH 7.4)) per well for 1 hour at room temperature. Each hybridoma supernatant was incubated with cells at room temperature for 1 hour. Cells were gently washed 3 times with 200 μl PBS (pH 7.4) containing 1 mM Ca²⁺ and 0.5 mM Mg²⁺. Next, cells were incubated with 100 μl of HRP-conjugated goat anti-human IgG (H+L) antibody for 1 hour at room temperature. Following the incubation, the cells were washed three times with 200 μl PBS (pH 7.4) containing 1 mM Ca²⁺ and 0.5 mM Mg²⁺. 100 μl of 1-Step™ Ultra TMB-ELISA Substrate was added to each well, and the reactions were stopped by addition of 50 μl of stop solution. OD₄₅₀ was measured using CLARIOStar microplate reader. The in-cell ELISAs were repeated for each clone using HEK293-CLDN18.1 cells.

[2] = target: T1, claudin 18.1 (CLDN18.1); test: FACS, hybridoma supernatant on HEK293-CLDN18.1
Text: (§2) Ten days after fusion, hybridoma supernatants were screened by FACS against HEK293-CLDN18.2, HEK293-CLDN18.1 and HEK293.

[3] = target: T2, claudin 18.2 (CLDN18.2) (human); test: FACS, hybridoma supernatant on HEK293-CLDN18.2;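 note: flow cytometry of hybridoma supernatants taken 10 days after fusion, applied to HEK293 cells stably expressing CLDN18.2, with MFI standing for mean fluorescence intensity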
T2 construct: also called Claudin 18 isotype 2; HEK293-CLDN18.2
Text: as §2

[4] = target: T2, claudin 18.2 (CLDN18.2); test: in-cell ELISA, hybridoma supernatant on HEK293-CLDN18.2 cells
Experimental: as §1

Binder	OD450/µg IgG [1]	MFI [2]	MFI [3]	OD450/µg IgG [4]
B1	3.05 OD450/µg IgG	20400	136000	102 OD450/µg IgG
B2	3.34 OD450/µg IgG	6930	61400	48.6 OD450/µg IgG
B3	2.87 OD450/µg IgG	12100	80100	18 OD450/µg IgG
B4	2.16 OD450/µg IgG	6390	46100	15.4 OD450/µg IgG
B5	1.04 OD450/µg IgG	8130	94700	12.2 OD450/µg IgG
B6	2.51 OD450/µg IgG	6450	47000	18.4 OD450/µg IgG
B7	1.32 OD450/µg IgG	11200	105000	13.2 OD450/µg IgG
B8	2.23 OD450/µg IgG	7460	72600	20.4 OD450/µg IgG
B9	2.18 OD450/µg IgG	7630	54100	25.9 OD450/µg IgG
B10			127000	9.52 OD450/µg IgG
B11		10200	61900	
